From publication PMC5384220, “Highly selective inhibition of histone demethylases by de novo macrocyclic peptides” (Nature Communications, 2017)

T1: His-KDM4A_(1–359)-Bio (human, UniProt O75164 1-359, biotin on the AviTag (>95% biotinylation))
T1 construct: KDM4A, residues 1-359, cloned into pNIC-Bio3; also called His-KDM4A-Bio; His-KDM4A with biotin; not shown: AviTag, C-terminal, kept
T1 sequence (looked up): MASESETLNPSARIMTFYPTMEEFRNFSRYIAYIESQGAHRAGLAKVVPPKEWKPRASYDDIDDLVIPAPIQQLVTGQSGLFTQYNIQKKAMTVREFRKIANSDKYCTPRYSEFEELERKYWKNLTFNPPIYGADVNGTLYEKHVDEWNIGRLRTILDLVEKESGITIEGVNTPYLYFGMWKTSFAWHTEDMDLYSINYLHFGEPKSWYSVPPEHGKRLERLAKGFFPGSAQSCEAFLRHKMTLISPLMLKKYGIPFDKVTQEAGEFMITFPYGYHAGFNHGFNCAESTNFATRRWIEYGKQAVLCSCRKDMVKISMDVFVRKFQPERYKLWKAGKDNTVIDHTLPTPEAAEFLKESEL

T2: KDM2A (human, UniProt Q9Y2K7 1-1162)
T2 sequence (looked up): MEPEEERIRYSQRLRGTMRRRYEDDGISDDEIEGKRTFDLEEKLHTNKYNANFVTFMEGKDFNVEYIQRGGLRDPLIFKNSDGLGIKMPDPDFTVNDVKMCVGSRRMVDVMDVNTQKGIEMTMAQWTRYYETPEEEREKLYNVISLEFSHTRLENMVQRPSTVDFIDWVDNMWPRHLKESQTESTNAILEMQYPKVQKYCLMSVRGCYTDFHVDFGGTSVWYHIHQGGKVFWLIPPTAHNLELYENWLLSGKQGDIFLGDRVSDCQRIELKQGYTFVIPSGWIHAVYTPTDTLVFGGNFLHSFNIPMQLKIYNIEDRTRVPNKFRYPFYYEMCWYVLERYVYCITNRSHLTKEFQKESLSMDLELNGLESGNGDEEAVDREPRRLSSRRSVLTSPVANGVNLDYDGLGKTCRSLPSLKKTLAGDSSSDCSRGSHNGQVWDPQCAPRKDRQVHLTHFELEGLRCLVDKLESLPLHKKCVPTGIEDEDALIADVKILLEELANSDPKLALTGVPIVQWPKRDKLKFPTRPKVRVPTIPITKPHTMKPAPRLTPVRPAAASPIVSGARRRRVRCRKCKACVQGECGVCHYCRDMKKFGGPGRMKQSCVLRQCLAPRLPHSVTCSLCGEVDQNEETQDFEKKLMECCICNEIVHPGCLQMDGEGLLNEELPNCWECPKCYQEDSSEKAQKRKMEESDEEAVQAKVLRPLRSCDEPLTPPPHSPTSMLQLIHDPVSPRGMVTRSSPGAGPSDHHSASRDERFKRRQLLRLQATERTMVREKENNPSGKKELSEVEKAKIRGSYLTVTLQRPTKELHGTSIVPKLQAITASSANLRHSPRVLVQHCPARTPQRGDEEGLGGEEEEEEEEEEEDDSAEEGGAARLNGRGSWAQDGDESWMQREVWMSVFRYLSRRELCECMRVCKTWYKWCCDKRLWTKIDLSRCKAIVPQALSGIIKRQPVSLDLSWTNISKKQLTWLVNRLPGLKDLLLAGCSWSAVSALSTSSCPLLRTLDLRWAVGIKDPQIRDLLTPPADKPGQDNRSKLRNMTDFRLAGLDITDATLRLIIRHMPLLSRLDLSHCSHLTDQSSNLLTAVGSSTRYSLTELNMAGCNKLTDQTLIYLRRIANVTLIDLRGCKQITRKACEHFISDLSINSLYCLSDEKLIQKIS

T3: KDM4D (human, UniProt Q6B0I6 1-523)
T3 sequence (looked up): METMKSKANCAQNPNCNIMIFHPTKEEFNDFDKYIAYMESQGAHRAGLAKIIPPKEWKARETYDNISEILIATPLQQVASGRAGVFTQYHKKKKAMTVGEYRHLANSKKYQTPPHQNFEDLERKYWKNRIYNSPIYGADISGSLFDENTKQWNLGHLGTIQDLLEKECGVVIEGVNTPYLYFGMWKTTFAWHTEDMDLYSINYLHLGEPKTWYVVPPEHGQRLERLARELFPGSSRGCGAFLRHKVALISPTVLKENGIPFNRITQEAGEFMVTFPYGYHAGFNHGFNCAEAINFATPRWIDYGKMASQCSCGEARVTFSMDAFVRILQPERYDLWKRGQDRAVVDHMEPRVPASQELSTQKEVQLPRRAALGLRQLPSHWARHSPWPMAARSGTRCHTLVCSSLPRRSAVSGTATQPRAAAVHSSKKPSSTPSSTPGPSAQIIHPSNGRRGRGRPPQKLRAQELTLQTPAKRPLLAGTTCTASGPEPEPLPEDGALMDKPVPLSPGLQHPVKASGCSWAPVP

T4: KDM3A (human, UniProt Q9Y4C1 1-1321)
T4 sequence (looked up): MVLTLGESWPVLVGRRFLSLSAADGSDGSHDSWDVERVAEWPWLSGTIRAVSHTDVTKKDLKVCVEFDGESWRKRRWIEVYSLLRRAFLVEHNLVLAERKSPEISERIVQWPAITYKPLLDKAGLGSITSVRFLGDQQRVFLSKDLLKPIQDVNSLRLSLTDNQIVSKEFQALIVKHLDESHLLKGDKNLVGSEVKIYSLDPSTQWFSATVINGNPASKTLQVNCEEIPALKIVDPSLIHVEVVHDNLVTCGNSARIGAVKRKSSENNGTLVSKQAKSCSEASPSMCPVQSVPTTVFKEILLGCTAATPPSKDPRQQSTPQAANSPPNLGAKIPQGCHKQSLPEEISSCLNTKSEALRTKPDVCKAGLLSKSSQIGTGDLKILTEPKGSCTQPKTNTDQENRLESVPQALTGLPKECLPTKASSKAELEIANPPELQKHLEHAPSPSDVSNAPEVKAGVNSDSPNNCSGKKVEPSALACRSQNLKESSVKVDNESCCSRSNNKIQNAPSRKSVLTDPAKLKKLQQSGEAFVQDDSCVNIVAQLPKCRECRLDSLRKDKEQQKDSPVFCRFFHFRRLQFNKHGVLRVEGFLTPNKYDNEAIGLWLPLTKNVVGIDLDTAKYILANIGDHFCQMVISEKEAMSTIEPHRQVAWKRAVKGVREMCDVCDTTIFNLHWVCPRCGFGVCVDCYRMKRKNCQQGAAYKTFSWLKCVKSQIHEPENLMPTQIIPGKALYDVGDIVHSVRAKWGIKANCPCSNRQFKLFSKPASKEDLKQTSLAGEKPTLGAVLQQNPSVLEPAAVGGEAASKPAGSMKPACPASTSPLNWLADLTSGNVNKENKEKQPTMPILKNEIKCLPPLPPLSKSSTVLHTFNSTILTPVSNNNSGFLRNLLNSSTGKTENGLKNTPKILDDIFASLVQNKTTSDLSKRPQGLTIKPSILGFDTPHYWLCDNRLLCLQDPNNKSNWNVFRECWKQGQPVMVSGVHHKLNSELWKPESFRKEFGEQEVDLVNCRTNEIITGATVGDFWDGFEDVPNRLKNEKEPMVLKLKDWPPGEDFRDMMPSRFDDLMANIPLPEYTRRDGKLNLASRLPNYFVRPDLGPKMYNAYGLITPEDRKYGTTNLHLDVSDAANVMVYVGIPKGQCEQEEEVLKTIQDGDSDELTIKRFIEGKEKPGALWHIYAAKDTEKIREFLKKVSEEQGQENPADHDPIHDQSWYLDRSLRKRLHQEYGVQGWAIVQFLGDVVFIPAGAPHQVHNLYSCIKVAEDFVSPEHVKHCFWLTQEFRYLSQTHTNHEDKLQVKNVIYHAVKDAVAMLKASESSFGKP


Assays:
[1] = molecular target: T1, His-KDM4A_(1–359)-Bio; assay: BLI; His-KDM4A(1–359)-Bio (70 nM) immobilised on super streptavidin biosensor, peptides at different concentrations in solution; OctetRed 384; 50 mM HEPES pH 7.5, 150 mM NaCl, 10 μM ammonium iron(II) sulphate; conditions: both partners purified
[2] = molecular target: KDM1A (human, UniProt O60341 1-852); assay: cell-based or functional assay
[3] = molecular target: KDM5C (human, UniProt P41229 1-1560); assay: cell-based or functional assay
[4] = molecular target: T2, KDM2A; assay: cell-based or functional assay
[5] = molecular target: prolyl hydroxylase domain 2 (UniProt Q9GZT9 1-426); assay: cell-based or functional assay
[6] = molecular target: factor inhibiting HIF (UniProt Q9NWT6 1-349); assay: cell-based or functional assay
[7] = molecular target: T3, KDM4D; assay: cell-based or functional assay
[8] = molecular target: T4, KDM3A; assay: cell-based or functional assay
[9] = molecular target: KDM6B (human, UniProt O15054 1-1643); assay: cell-based or functional assay
Sequence of KDM6B (O15054 whole entry): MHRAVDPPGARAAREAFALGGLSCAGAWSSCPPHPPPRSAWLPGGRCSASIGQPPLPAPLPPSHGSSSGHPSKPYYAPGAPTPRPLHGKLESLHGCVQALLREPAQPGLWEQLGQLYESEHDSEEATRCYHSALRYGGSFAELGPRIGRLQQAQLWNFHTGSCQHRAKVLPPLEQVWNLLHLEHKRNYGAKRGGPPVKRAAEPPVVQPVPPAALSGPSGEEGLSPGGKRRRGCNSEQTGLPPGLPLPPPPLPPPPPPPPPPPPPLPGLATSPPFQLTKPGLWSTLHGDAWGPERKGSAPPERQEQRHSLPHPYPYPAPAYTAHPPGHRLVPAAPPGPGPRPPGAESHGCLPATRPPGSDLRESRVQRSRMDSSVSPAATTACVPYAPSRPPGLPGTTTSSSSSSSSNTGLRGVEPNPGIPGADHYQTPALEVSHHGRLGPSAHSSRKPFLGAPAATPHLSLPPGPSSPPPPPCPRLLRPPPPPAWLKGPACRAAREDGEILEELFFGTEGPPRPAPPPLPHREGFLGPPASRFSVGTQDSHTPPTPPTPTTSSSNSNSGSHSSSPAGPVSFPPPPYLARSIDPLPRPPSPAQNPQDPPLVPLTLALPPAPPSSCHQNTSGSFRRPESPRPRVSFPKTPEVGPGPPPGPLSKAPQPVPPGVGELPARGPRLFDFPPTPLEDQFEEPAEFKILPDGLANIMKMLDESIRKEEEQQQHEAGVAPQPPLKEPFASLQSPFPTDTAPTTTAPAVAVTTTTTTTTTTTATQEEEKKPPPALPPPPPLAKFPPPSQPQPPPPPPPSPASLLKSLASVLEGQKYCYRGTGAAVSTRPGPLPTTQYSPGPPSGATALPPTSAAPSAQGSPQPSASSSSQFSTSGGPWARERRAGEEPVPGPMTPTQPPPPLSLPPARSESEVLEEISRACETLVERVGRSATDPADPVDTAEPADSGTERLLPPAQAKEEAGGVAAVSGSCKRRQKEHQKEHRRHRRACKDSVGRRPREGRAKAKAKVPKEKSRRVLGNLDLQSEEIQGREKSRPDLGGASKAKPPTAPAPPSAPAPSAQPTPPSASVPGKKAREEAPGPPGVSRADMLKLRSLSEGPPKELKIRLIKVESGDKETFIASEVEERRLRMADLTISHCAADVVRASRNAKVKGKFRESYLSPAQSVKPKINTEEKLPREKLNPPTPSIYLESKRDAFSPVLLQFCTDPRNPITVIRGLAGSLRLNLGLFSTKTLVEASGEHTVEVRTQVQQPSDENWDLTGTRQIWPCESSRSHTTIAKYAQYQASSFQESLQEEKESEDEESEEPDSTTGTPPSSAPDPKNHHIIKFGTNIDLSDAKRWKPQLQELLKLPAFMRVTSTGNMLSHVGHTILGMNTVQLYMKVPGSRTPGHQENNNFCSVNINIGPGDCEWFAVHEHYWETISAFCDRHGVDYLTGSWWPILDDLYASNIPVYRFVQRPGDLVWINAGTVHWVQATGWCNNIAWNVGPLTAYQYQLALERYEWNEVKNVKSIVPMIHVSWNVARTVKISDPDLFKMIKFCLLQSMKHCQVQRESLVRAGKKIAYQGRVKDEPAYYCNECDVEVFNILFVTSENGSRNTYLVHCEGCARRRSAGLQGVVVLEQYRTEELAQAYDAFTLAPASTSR

Sequence of factor inhibiting HIF (Q9NWT6 whole entry): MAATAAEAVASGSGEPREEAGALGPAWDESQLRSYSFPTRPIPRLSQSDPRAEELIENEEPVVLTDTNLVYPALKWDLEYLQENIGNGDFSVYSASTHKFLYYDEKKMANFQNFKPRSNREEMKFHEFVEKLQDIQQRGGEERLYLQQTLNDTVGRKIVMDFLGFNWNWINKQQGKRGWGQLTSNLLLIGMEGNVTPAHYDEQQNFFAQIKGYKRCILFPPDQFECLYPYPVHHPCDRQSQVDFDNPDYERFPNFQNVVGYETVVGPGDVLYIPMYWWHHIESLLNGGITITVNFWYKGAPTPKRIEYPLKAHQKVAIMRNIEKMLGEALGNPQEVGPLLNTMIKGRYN
Sequence of prolyl hydroxylase domain 2 (Q9GZT9 whole entry, the tested form may be a part): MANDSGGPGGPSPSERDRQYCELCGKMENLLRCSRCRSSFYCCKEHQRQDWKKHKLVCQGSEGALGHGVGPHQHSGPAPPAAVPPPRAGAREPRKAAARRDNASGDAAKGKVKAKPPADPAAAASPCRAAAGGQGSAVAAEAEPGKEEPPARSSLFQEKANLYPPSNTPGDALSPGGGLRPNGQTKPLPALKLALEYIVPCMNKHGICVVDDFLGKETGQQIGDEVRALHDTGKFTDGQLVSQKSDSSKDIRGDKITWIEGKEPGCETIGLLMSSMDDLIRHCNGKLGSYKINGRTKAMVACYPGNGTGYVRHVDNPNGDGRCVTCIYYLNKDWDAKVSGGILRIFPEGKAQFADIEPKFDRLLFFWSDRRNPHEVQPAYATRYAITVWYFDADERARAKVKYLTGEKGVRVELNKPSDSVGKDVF
Sequence of KDM5C (P41229 whole entry): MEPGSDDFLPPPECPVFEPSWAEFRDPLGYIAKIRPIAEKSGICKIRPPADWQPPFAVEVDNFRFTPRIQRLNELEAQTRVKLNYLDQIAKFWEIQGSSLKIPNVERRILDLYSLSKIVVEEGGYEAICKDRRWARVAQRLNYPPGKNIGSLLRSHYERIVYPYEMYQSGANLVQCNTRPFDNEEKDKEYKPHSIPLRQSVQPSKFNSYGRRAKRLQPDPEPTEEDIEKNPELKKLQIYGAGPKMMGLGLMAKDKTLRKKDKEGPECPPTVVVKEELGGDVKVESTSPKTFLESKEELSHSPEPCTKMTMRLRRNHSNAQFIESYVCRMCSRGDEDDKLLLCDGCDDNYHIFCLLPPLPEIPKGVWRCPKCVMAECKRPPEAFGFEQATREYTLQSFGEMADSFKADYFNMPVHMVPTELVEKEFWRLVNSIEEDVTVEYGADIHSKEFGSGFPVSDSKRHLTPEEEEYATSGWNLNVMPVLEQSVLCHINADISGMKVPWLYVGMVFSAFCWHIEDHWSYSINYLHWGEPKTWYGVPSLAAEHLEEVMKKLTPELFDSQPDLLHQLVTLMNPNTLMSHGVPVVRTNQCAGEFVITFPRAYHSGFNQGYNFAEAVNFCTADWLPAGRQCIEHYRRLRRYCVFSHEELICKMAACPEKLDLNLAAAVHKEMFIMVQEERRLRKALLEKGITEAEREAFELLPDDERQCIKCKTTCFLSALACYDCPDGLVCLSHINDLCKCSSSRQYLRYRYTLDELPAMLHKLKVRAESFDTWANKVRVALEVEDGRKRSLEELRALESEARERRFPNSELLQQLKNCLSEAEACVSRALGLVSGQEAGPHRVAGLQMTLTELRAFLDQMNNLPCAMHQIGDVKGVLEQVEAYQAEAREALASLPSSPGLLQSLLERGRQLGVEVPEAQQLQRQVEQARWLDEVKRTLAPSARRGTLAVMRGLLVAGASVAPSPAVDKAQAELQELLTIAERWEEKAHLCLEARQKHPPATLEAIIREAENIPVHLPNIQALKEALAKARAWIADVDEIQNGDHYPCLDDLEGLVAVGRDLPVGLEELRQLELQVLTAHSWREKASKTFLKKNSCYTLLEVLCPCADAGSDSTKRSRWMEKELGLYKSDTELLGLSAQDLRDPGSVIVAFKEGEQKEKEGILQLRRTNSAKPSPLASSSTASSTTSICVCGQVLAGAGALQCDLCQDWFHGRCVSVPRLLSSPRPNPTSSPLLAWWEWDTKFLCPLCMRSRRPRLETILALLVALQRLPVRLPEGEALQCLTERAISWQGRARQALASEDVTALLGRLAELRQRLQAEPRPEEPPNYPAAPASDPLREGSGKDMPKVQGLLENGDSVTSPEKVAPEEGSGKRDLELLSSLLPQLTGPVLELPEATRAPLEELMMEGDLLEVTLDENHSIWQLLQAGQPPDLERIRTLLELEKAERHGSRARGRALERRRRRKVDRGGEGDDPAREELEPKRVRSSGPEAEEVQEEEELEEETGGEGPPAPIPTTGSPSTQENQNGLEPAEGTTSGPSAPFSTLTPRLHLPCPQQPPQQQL

Binder | fold weaker Kd than the cyclic peptides CP2, CP4 and CP5 [1] | IC50 of inhibition of KDM1A/LSD1 (fluorescence-based assay) [2] | IC50 of inhibition of demethylase activity (AlphaScreen activity assay) [3] | IC50 of inhibition of demethylase activity (AlphaScreen activity assay) [4] | IC50 of inhibition of PHD2 (MALDI–TOF MS assay) [5] | IC50 of inhibition of FIH (MALDI–TOF MS assay) [6] | IC50 of inhibition of demethylase activity (AlphaScreen activity assay) [7] | IC50 of inhibition of demethylase activity (AlphaScreen activity assay) [8] | IC50 of inhibition of demethylase activity (AlphaScreen activity assay) [9]
ARTKQTARKSTGGKA (peptide, UniProt P68431 2-16, looked up, trimethyl-lysine at 9, histone H3, residues 1-15, Lys9 trimethylated; The H3K9me3 substrate of the formaldehyde dehydrogenase coupled assay is not described further; this molecule is used for it; also called histone H3K9 peptide; H3K9me3) [H3(1–15)K9me3] | > 1000 fold | – | – | – | – | – | – | – | –
YSKYTQSGVRWVC (not fully specified; N-terminal L-Tyr (^LTyr library, N-chloroacetyl-L-Tyr) cyclised by a thioether to a downstream cysteine) [CP5] | – | > 10 µM | > 10 µM | > 10 µM | > 1000 µM | > 1000 µM | > 10 µM | > 10 µM | > 10 µM
